To fix the notation:
B1: MATN2 (parent)
chain: VNVPGSFVCQCYSGYALAEDGKRC
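Further: lentivirally expressed fusions sorted by FACS into six bins by GFP to DsRed ratio, PSI derived from sequencing read proportions per bin multiplied by bin number.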

The variants in this data set derive from B1. Nature of the data set: protein stability index of a GFP-peptide fusion (GPS, HEK-293T) (PSI 1-6); higher = more stable. To be noted: c terminus: a fixed tail appended.
As to VNKPGSFVCQCYSGYALAEDGKRC [V3K], the protein stability index worked out at 2.82.

In the case of VNIPGSFVCQCYSGYALAEDGKRC [V3I], the protein stability index was determined as 1.23.

With VNVPGSFVCQCYSGYHLAEDGKRC [A16H], the protein stability index turned out to be 2.77.

Regarding VNVPGSFVCQCYSGYRLAEDGKRC [A16R], the protein stability index amounted to 1.52.

Regarding VNVPGSFVCQCYSGYDLAEDGKRC [A16D], the protein stability index amounted to 2.17.

On to VNVPGSFVCQCYSGYLLAEDGKRC [A16L], for which the protein stability index was determined as 1.73.

Turning to VNVPGSFVCQCYSGYMLAEDGKRC [A16M], the protein stability index turned out to be 1.79.

For the variant VNVPGSFVCQCYSGYALAEDGKRI [C24I], the protein stability index came out at 2.22.

Regarding VNVPGSFVCQCYSGYALAEDGKRA [C24A], the protein stability index came to 1.73.

For the variant VNVPGSFVCQCYSGYALAEDGKRK [C24K], the protein stability index was 2.5.

On to VNVPGSFVCQCYSGYALAEDGKRE [C24E], for which the protein stability index stood at 1.94.

Consider VNVPGSFVCQCYSGYALAEDGKRQ [C24Q], for which the protein stability index came out at 2.12.

As for VNVPGSFVCQCYSGYALAEDGKRN [C24N], the protein stability index amounted to 2.72.

On to VNVPGSFVCQCNSGYALAEDGKRC [Y12N], for which the protein stability index was determined as 1.98.

As to VNVPGSFVCQCWSGYALAEDGKRC [Y12W], the protein stability index stood at 2.62.

Consider VNVPGSFVCQCASGYALAEDGKRC [Y12A], for which the protein stability index amounted to 2.73.

For the variant VNVPGSFVCQCLSGYALAEDGKRC [Y12L], the protein stability index was 2.21.

Take VNVPGSFVCQCHSGYALAEDGKRC [Y12H]: the protein stability index stood at 2.24.

VNVPGSFVCQCYSGYALAEDSKRC [G21S]: the protein stability index came out at 2.36.

For VNVPGSFVCQCYSGYALAEDKKRC [G21K], the protein stability index was 2.03.

For VNVPGSFVCQCYSGYALAEDEKRC [G21E], the protein stability index is 1.84.

As to VNVPGSFVCQCYSGYALAEDAKRC [G21A], the protein stability index was found to be 2.

Take VNVPGSFVCQCYSGYALAEDDKRC [G21D]: the protein stability index amounted to 2.43.

Consider VNVPGSFVCQCYSGYALAEDNKRC [G21N], for which the protein stability index amounted to 1.93.

As to VNVPGSFVCQCYSGYALAEDHKRC [G21H], the protein stability index worked out at 2.41.

Turning to VNVPGSFVCQCYSGYALAEDCKRC [G21C], the protein stability index turned out to be 4.22.

For VNVPGSFVCQCYSGYALAEDRKRC [G21R], the protein stability index worked out at 2.08.

For the variant VNVPGSFVCQCYSGYALAEDQKRC [G21Q], the protein stability index came out at 2.75.

On to VNVPGSFVCQCYSGYALAEDLKRC [G21L], for which the protein stability index came out at 2.7.

Turning to VNVPRSFVCQCYSGYALAEDGKRC [G5R], the protein stability index is 2.17.

With VNVPWSFVCQCYSGYALAEDGKRC [G5W], the protein stability index came to 4.67.

Consider VNVPVSFVCQCYSGYALAEDGKRC [G5V], for which the protein stability index was 1.17.

As for VNVPPSFVCQCYSGYALAEDGKRC [G5P], the protein stability index was 2.31.

As for VNVPASFVCQCYSGYALAEDGKRC [G5A], the protein stability index came to 1.67.

For VNVPHSFVCQCYSGYALAEDGKRC [G5H], the protein stability index stood at 2.6.

VNVPSSFVCQCYSGYALAEDGKRC [G5S]: the protein stability index came out at 1.91.

Turning to VNVPQSFVCQCYSGYALAEDGKRC [G5Q], the protein stability index amounted to 2.14.

In the case of VNVPLSFVCQCYSGYALAEDGKRC [G5L], the protein stability index worked out at 1.06.

Consider VNVPGSFVCQCYSGYALAEWGKRC [D20W], for which the protein stability index is 1.57.

Consider VNVPGSFVCQCYSGYALAERGKRC [D20R], for which the protein stability index is 1.58.

In the case of VNVPGSFVCQCYSGYALAEMGKRC [D20M], the protein stability index was determined as 1.72.

In the case of VNVPGSFVCQCYSGYALAEIGKRC [D20I], the protein stability index amounted to 2.81.

As to VNVPGSFVCQCYSGYALAEQGKRC [D20Q], the protein stability index came to 1.37.

For VNVPGSFVCQCYSGYALAECGKRC [D20C], the protein stability index worked out at 3.42.

For VNVPGSFVCQCYSGYALAEPGKRC [D20P], the protein stability index amounted to 2.42.

Take VNVPGSFVCQCYSGYALAETGKRC [D20T]: the protein stability index was determined as 2.12.

As for VNVPGSFVCQCYSGKALAEDGKRC [Y15K], the protein stability index was determined as 1.98.

As to VNVPGSFVCQCYSGPALAEDGKRC [Y15P], the protein stability index was determined as 2.81.

For VNVPGSFVCQCYSGAALAEDGKRC [Y15A], the protein stability index is 2.56.

Consider VNVPGSFVCQCYSGCALAEDGKRC [Y15C], for which the protein stability index came out at 2.77.

Take VNVPGSFVCQCYSGEALAEDGKRC [Y15E]: the protein stability index stood at 2.5.

For the variant VNVPGSFVCQCYSGRALAEDGKRC [Y15R], the protein stability index was determined as 2.

VNVPGSFVCQCYSGWALAEDGKRC [Y15W]: the protein stability index amounted to 1.65.

For VNVPGSFVCQCYSGIALAEDGKRC [Y15I], the protein stability index came to 2.23.

For the variant VNVPGSFVCQCYSGSALAEDGKRC [Y15S], the protein stability index worked out at 3.02.

Regarding VNVPGSFVCQCYSGQALAEDGKRC [Y15Q], the protein stability index was found to be 1.98.

As for VNVPGSFVCQCYSGYAYAEDGKRC [L17Y], the protein stability index came to 2.44.

Take VNVPGSFVCQCYSGYADAEDGKRC [L17D]: the protein stability index is 2.51.

For VNVPGSFVCQCYSGYAFAEDGKRC [L17F], the protein stability index turned out to be 1.03.

For VNVPGSFVCQCYSGYAWAEDGKRC [L17W], the protein stability index turned out to be 1.92.

As for VNVPGSFVCQCYSGYACAEDGKRC [L17C], the protein stability index stood at 3.36.

For the variant VNVPGSFVCQCYSGYAEAEDGKRC [L17E], the protein stability index worked out at 2.58.

Turning to VNVPGSFVCQCYSGYALAQDGKRC [E19Q], the protein stability index turned out to be 1.75.

VNVPGSFVCQCYSGYALARDGKRC [E19R]: the protein stability index is 1.51.

Consider VNVPGSFVCQCYSGYALAGDGKRC [E19G], for which the protein stability index came to 2.83.

VNVPGSFVCQCYSGYALAKDGKRC [E19K]: the protein stability index came out at 2.

VNVPGSFVCQCYSGYALAHDGKRC [E19H]: the protein stability index amounted to 3.03.

Take VNVPGSFVCQCYSGYALADDGKRC [E19D]: the protein stability index stood at 1.76.

Take VNVPGSFVCQCYSGYALAYDGKRC [E19Y]: the protein stability index is 1.7.

VNVPGSFVCQCYSGYALAADGKRC [E19A]: the protein stability index came to 1.93.

Regarding VNVPGSFVCQCYSGYALAVDGKRC [E19V], the protein stability index is 2.29.

For VNVPGSFVCQCYDGYALAEDGKRC [S13D], the protein stability index worked out at 2.17.

Turning to VNVPGSFVCQCYGGYALAEDGKRC [S13G], the protein stability index is 2.33.

Regarding VNVPGSFVCQCYNGYALAEDGKRC [S13N], the protein stability index was 2.45.

With VNVPGSFVCQCYTGYALAEDGKRC [S13T], the protein stability index is 2.34.

Turning to VNVPGSFVCQCYEGYALAEDGKRC [S13E], the protein stability index is 2.1.

As for VNVPGSFVCQCYIGYALAEDGKRC [S13I], the protein stability index is 1.62.

Regarding VNVPGSFVCQCYRGYALAEDGKRC [S13R], the protein stability index was 1.85.

On to VNVPGSFMCQCYSGYALAEDGKRC [V8M], for which the protein stability index turned out to be 2.79.

As for VNVPGSFPCQCYSGYALAEDGKRC [V8P], the protein stability index is 2.28.

As to VNVPGSFGCQCYSGYALAEDGKRC [V8G], the protein stability index was determined as 1.92.

Take VNVPGSFKCQCYSGYALAEDGKRC [V8K]: the protein stability index came to 2.74.

As to VNVPGSFWCQCYSGYALAEDGKRC [V8W], the protein stability index stood at 3.21.

Consider VNVPGSFFCQCYSGYALAEDGKRC [V8F], for which the protein stability index was determined as 1.79.

As for VNVPGSFDCQCYSGYALAEDGKRC [V8D], the protein stability index was 3.89.

Turning to VNVPGSFTCQCYSGYALAEDGKRC [V8T], the protein stability index stood at 1.96.

For the variant VNVPGTFVCQCYSGYALAEDGKRC [S6T], the protein stability index stood at 2.12.

In the case of VNVPGCFVCQCYSGYALAEDGKRC [S6C], the protein stability index was determined as 2.05.

As for VNVPGYFVCQCYSGYALAEDGKRC [S6Y], the protein stability index was found to be 1.87.

On to VNVPGEFVCQCYSGYALAEDGKRC [S6E], for which the protein stability index is 2.67.

Turning to VNVPGQFVCQCYSGYALAEDGKRC [S6Q], the protein stability index stood at 1.81.

As for VNVPGHFVCQCYSGYALAEDGKRC [S6H], the protein stability index turned out to be 2.27.

On to VNVPGWFVCQCYSGYALAEDGKRC [S6W], for which the protein stability index turned out to be 2.04.

In the case of VNVPGVFVCQCYSGYALAEDGKRC [S6V], the protein stability index worked out at 1.84.

The values above are taken from the supplement of paper PMC10567573.
